The text below walks through data of PMC9596371 (Nature Chemical Biology, 2022).

The target of this assay is OC43 spike protein (FL-GCN4-Avi-His, 2P, biotinylated) (human coronavirus OC43, strain of …, UniProt P36334, stabilised, biotin on the Avi tag). The assay is described as follows: ELISA. To be noted: both partners purified. Background: ELISA stands for enzyme-linked immunosorbent assay.

B1: COV2-2449 IgG (antibody, V domains shown)
VH: QVQLVESGGGVVQPGRSLRLSCATSGFTFSSFALHWVRQAPGKGLEWVTVISDDGNNKYYVDSVKGRFTISRDNSKNTLFLQMNSLRVEDTAIYYCARASYNSNWSIGEYFRDWGQGTLVTVSS
VL: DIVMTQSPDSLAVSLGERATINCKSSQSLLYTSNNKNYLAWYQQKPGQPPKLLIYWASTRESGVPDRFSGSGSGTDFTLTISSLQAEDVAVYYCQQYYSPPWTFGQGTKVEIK
Regarding B1, the binding result was “binds”.
